Experimental data: paper PMC7152990, “Plasmon-Emitter Hybrid Nanostructures of Gold Nanorod-Quantum Dots with Regulated Energy Transfer as a Universal Nano-Sensor for One-Step Biomarker Detection”

Biological target: T1, alpha fetoprotein (AFP) (human, UniProt P02771 19-609)
T1 sequence: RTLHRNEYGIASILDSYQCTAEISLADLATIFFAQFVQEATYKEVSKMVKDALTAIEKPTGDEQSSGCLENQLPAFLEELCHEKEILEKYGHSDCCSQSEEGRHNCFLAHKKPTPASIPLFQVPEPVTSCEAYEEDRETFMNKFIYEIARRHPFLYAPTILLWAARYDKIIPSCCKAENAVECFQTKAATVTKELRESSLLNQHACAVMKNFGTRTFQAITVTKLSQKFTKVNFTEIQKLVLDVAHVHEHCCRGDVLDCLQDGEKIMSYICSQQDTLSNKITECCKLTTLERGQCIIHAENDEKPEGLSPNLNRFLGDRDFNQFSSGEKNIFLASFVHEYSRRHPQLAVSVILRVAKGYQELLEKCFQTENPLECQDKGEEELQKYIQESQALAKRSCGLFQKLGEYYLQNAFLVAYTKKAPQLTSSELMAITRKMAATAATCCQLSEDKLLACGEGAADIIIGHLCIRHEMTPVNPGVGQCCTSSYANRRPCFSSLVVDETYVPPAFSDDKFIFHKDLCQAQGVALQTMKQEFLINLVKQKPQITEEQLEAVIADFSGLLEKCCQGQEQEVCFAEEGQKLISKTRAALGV
Test: plasmon-regulated FRET / LSPR shift aptasensor (Au NR-QDs); 20 ng/mL AFP; LSPR redshift 1.2 nm, fluorescence decrease ~18%; sensor LOD 0.30 ng/mL (not a Kd); aptamer immobilized on Au NR-QDs via glutaraldehyde (room temperature, 2 h, water); AFP binding buffer, pH and temperature not given in the material
Conditions: protein: commercial

B1: AFP aptamer (ssDNA)
DNA: GTGACGCTCCTAACGCTGACTCAGGTGCAGTTCTCGACTCGGTCTTGATGTGGGTCCTGTCCGTCCGAACCAATC
modifications: 5'-NH2
binding result: binds
